US20220112276A1 (Janssen / Centocor, published 2022)
Changes are numbered by the printed parent chain.

B1: 01F04R3LS His-tagged VHH (VHH)
VHH: EVQLVESGGGLVQAGGSLRLSCAASGRTFSRYAMGWFRQAPGKEREFVAAIAWSGGAIYYADFVKGQFTISRDNAKNTVDLEMNRLKPEDTAVYYCGSTRDPRVGDKKFYDYWGQGTQVTVSS
B2: 01F03R2LS His-tagged VHH (VHH)
VHH: EVQLVESGGGLVQAGDSLRLSCAASGRTGSSGAMGWFRQGPGKEREFVAALMWRNTVTYKYYEDSVKGRFTISRDNAKNTAYLQMNSLKPEDTAVYYCAADPDTYGDPRNSGAYDYWGQGTLVTVSS
B3: 01F04R2LS His-tagged VHH (VHH)
VHH: EVQLVESGGGLVQTGGSLRLSCAASGRTFSSYAMGWFRQAPGKEPERDFVAALRWSNDRTYYKYYADSVKGRFTISRDNAKNTVYLQMNTLKPEDTAVYYCAGGNYFSDPRVDKEYNYWGQGTQVTVSS
B4: 01A07R3LS His-tagged VHH (VHH)
VHH: QVQLVESGGGLVQAGDSLRLSCAASGRTFPTYAMGWFRQAPGKEREFVATIRWSGSTQYKYYADFVKGRFTISRDNAKNTVYLQMDSLKPEDTAVYYCAATTLLGDPRALNEYAYWGQGTQVTVSS
B5: 01G09R3LS His-tagged VHH (VHH)
VHH: B4 VHH with Q1E, G105T, E112A
B6: 01G03R3L His-tagged VHH (VHH)
VHH: QVQLVESGGGSVQAGGSLRLSCAASGRTFSNYAMGWFRQAPGKEREFVAGISRSGGSTYSADSVKGRFTISRDNAKNTVYLQMNSLKPEDTAVYYCAADGLDYALGFRGDYWGQGTLVTVSS
B7: 01H08R3 His-tagged VHH (VHH)
VHH: QVQLVESGGGSVQTGGSLRLSCTASGRTFSNYGMGWFRQAPGKEREFVAGITRSGRTTYYYYADAVKGRFTIPRDNADNTIYLQMDSMKPDDTAVYYCAARQGENNYDPRSGSAYNYWGPGTQVTVSS
B8: 02C10R3 His-tagged VHH (VHH)
VHH: EVQLVESGGGLVQPGGSLRLSCAASGFTFSSFTMTWFRQAPGKGLGWVSRISSDGTGTNYADSVKGRFTISRDNAKNTLYLRMNSLKPEDTAVYYCAIADDSSTRGQGTLVTVSS
B9: 01F12R2 His-tagged VHH (VHH)
VHH: EVQLVESGGGLVQPGGSLRLSCAASGRTFSSYTMGWFRQAPGEEREFVSAISWSSDGTYYKYYTDTVKGRFTISRDNAETTVHLQMNSLKPEDTAVYYCAASSSGTYGDPRSEREYRYWGQGTLVTVSS
B10: 01G07R3 His-tagged VHH (VHH)
VHH: QVQLVESGGGLVQAGDSLRLSCAASGRTLSFDTYAMGWFRQAPGKEREFVASIDWSGGTTYYADSVKGRFTVTRDNAKNTVTLRMNSLKPADTAVYYCAAAQYYRSGTSFPANYWGQGTLVTVSS
B11: 02B12R3 His-tagged VHH (VHH)
VHH: QVQLVESGGGWVQTGGSLRLSCAASGRTVSSYYMGWFRQTPGKEREFVAAISWVGSSTYKYYTDSAKGRFTISRDNAKNTVYLQMNSLKPEDTAVYYCAARPRVGDPRSRYDDDNWGQGTQVTVSS
B12: 01A07R3 His-tagged VHH (VHH)
VHH: EVQLVESGGGLVQTGESLRLSCAASGRAFSDLRMAWFRQVPGKEREFVAAVEWRGSSRYYYSADSVKGRFTISRTSPKGETYLQMNGLKPEDTAVYYCAAVSPVVGDPRNSDTYNYWGQGTQVTVSS
B13: 01H10R2 His-tagged VHH (VHH)
VHH: QVQLVESGGGLVQPGGSLRLSCAASGRTSSISTMGWFRQAPGKEREFVTAIRWSGSSSYKYYADSVKGRFTISRDNARNTVYLQMNSLKPEDTAVYYCAAQMSLWRDPREIDYDYWGQGTLVTVSS
B14: 01H02R3LS His-tagged VHH (VHH)
VHH: QVQLVESGGGLVQPGGSLRLSCAASGSIFSASVMGWYRQGPGKQREFVARISPGGVTHYADSVKGRFTISKDNAKNTVTLQMNSLKPEDTAVYYCNADRFGFEVYWGQGTLVTVSS
B15: 01H10R3 His-tagged VHH (VHH)
VHH: QVQLVESGGGLVQAGGSLRLSCAASGRAFSQYTMGWFRQAPGKEREFVTAIRWSGGSIYKYYADSVKGRFTISGDNARNTVDLQMNSLKPEDTAVYYCAARMSPWGDPRGNEYDYWGQGTLVTVSS
B16: 01F05R2LS His-tagged VHH (VHH)
VHH: QVQLVESGGGLVQAGGSLRLSCAASGSIFAINGMGWYRQAPGKQRELVAVITRGGSTNYADSVKGRFTISRDNAKNTVSLQMNSLKPEDTAVYYCAATGVLAGWAAGDGMDYWGKGTLVTVSS
B17: 01G05R2LS His-tagged VHH (VHH)
VHH: QVQLVESGGGLVQAGDSLALSCAGSGDTFSNYAMGWFRQAPGKEREFVADISWYSANIGYADSVKGRFTISRDNAKNMVTLRMNSLKPEDTAVYYCAADRNHWPVKGDYWGQGTQVTVSS
B18: 01A09R3L His-tagged VHH (VHH)
VHH: EVQLVESGGGVVQAEDSLRLSCAASGLSFSLSRMGWFRQAPGKEREFVATIEWSGRSTYKYYDDSVKGRFAVSGDNTKNTMNLQMKGLNLEDTGVYYCAANPNNYGDPRTPGAYQYWGQGTQVTVSS
B19: 01E10R3 His-tagged VHH (VHH)
VHH: QVQLVESGGGLVQSGGSLRLSCAASGRTFSDYAMGWFRQAPGKERELVAAITWNGGSTYYADSVKGRFTISRDNAKNTVDLQMNSLKPEDTAVYYCAADPLNSDSAGTYDYWGQGTLVTVSS
B20: 01E05R2 His-tagged VHH (VHH)
VHH: QVQLVESGGGLVQAGGSLRLSCAASGRAFSSGRMGWFRQAPGKEREFVAAISWSGHTTYKYYADSVKGRFTISRENAKNTVSLQMNSLKPEDTAVYYCAARQSLVAGGDPRGQSEYDYWGQGTLVTVSS
B21: 01F09R3 His-tagged VHH (VHH)
VHH: QVQLVESGGGLAQAGGSLTLSCAASGTAAGIDVMGWYRQTPGNSREFVARIFSNDVTHYADSVTGRFTLSRTQDKNTVSLQMNSLKPDDTGVYYCNARIWTGSTTVDYWGQGTQVTVSS
B22: 01C02R2 VHH Mono-Fc (Fc fusion)
chain: EVQLVESGGGLVQAGGSLRLSCAASGRSYAMGWFRQAPGKEREFAAAISWSGSRTYYADAVKGRFTISRDNAKNTVYLQMNSLKPEDTAVYYCAADPDGTVVASSGWTNSYEYGYWGQGTLVTVSSSPAPELLGGPSVFLFPPKPKDTLMISRTPEVTCVVVDVSHEDPEVKFNWYVDGVEVHNAKTKPREEQYNSTYRVVSVLTVLHQDWLNGKEYKCKVSNKALPAPIEKTISKAKGQPREPQVYTKPPSREEMTKNQVSLSCLVKGFYPSDIAVEWESNGQPENNYKTTVPVLDSDGSFRLASYLTVDKSRWQQGNVFSCSVMHEALHNHYTQKSLSLSPGK
B23: 03A08R3 VHH Mono-Fc (Fc fusion)
chain: QVQLVESGGGLVQAGGSLRLSCAASGRTSSIYGMGWFRQAPGKEREFVAAISWSAGRTYHADSVKGRFTISRDNAKNMVYLQMDKMKPGDTAVYYCAARRAPELLSDYTQKPEEIGTYHYWGQGTLVTVSSSPAPELLGGPSVFLFPPKPKDTLMISRTPEVTCVVVDVSHEDPEVKFNWYVDGVEVHNAKTKPREEQYNSTYRVVSVLTVLHQDWLNGKEYKCKVSNKALPAPIEKTISKAKGQPREPQVYTKPPSREEMTKNQVSLSCLVKGFYPSDIAVEWESNGQPENNYKTTVPVLDSDGSFRLASYLTVDKSRWQQGNVFSCSVMHEALHNHYTQKSLSLSPGK
B24: 01F03R3LS VHH Mono-Fc (Fc fusion)
chain: EVQLVESGGGLVQAGGSLRLSCAASGRTINGYVMGWFRQAPGEEREFVARIDWSGSSTDYADSVKGRFTISRDNAKITVYLQMNSLKPEDTAVYYCAGSAYYSGYVTHRDFGSWGQGTLVTVSSSPAPELLGGPSVFLFPPKPKDTLMISRTPEVTCVVVDVSHEDPEVKFNWYVDGVEVHNAKTKPREEQYNSTYRVVSVLTVLHQDWLNGKEYKCKVSNKALPAPIEKTISKAKGQPREPQVYTKPPSREEMTKNQVSLSCLVKGFYPSDIAVEWESNGQPENNYKTTVPVLDSDGSFRLASYLTVDKSRWQQGNVFSCSVMHEALHNHYTQKSLSLSPGK
B25: 03H01R3 VHH Mono-Fc (Fc fusion)
chain: EVQLVESGGGLVQAGGSLRLSCAASGRTSSIYNMGWFRQAPGQEREFVAAIHWGGGRTYYADSVKGRFTISRDNAKNTVYLQMNSLEPGDTANYYCAARRAPELLDDYKQKPEEIGTYHYWGQGTQVTVSSSPAPELLGGPSVFLFPPKPKDTLMISRTPEVTCVVVDVSHEDPEVKFNWYVDGVEVHNAKTKPREEQYNSTYRVVSVLTVLHQDWLNGKEYKCKVSNKALPAPIEKTISKAKGQPREPQVYTKPPSREEMTKNQVSLSCLVKGFYPSDIAVEWESNGQPENNYKTTVPVLDSDGSFRLASYLTVDKSRWQQGNVFSCSVMHEALHNHYTQKSLSLSPGK

Each binder was assayed against T1, recombinant human pIgR (hpIgR) (human, UniProt P01833 19-638, limits assumed) (assay: ELISA, periplasmic VHH, BSA subtracted).
T1 construct: probably the ECD
Procedure, shortened: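 His-tagged VHH in periplasmic extracts (osmotic shock, non-suppressor E. coli) were tested by ELISA for binding to pIgR. Bound nanobody was detected with polyclonal anti-alpaca VHH antibody in the initial screen and anti-VHH antibody on retest. Signal on BSA, run in parallel, was subtracted from the pIgR signal.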

T1 sequence (P01833 19-638 limits assumed): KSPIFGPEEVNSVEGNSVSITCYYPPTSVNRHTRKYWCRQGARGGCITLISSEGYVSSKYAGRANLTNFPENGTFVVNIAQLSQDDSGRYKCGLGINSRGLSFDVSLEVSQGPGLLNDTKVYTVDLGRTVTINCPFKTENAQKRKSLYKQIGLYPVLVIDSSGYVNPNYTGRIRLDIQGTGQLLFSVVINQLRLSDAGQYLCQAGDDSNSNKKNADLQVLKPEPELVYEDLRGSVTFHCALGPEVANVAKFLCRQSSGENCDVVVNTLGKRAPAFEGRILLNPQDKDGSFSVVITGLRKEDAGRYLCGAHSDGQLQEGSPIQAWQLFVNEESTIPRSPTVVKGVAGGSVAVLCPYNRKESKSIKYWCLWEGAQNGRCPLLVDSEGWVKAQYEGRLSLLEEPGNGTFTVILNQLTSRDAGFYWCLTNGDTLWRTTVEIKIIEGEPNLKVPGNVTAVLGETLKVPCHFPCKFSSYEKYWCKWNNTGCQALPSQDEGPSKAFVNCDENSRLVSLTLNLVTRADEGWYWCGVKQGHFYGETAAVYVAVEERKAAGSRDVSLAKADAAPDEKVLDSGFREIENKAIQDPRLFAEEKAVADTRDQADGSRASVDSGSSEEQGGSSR

ELISA (OD)	Binder
1.98	B1
2.14	B2
2.09	B3
0.48	B4
1.9	B5
0.74	B6
1.11	B7
2.05	B8
2.12	B9
2.19	B10
2.38	B11
1.68	B12
1.83	B13
1.97	B14
1.54	B15
2.4	B16
2.15	B17
1.98	B18
1.96	B19
2.1	B20
1.85	B21

These binders were tested against T2, human pIgR extracellular domain (ECD) (human, UniProt P01833 19-638) (assay: SPR, VHH captured by anti-Fc, ECD analyte).
T2 construct: Bought from R&D Systems (Cat 2717-PG-050); also called hpIgR ECD
Experimental: In an assay, two flow cells of the SPR were used, in which the flow cell 1 ran the buffer reference, and the flow cell 2 ran the analyte. […] The HBSP (GE) buffer was followed at a flow rate of 30 μL/min. Then, the VHHs were captured on the anti-human Fc protein surface at 0.5 ug/ml (˜200-300 RU) on the flow cell 2. The running buffer was changed to HBSP with 100 ug/ml BSA after the capture. Next, the pIgR extracellular domains were used as analyte and loaded in a series of concentrations, starting at 30 nM with further 3-fold dilution series.
The extracellular domains were prepared as follows: cynomolgus monkey and rat extracellular domains were produced and characterized in house; mouse and human pIgR extracellular domains were purchased from R&D Systems (Cat #2800-PG-050 & 2717-PG-050 respectively). The pIgR extracellular domains were injected from low to high concentration using a single-cycle kinetics method. The off-rate was monitored at 30 minutes after the last or highest concentration injection. The reference run was completed under the same conditions except that the pIgR injection was replaced by buffer injection.
The raw data were processed by subtracting two sets of reference data from the response data: (1) reference flow cell 1 subtracted from sample flow cell 2; and (2) buffer blank run subtracted from experimental run. The processed data at all concentrations for each VHH were globally fit to a 1:1 simple Langmuir binding model to extract estimates of the kinetic constants (kₒₙ, koff) and affinity constants (KD).

T2 sequence (P01833 other isoform, or with tags, fused parts or gaps): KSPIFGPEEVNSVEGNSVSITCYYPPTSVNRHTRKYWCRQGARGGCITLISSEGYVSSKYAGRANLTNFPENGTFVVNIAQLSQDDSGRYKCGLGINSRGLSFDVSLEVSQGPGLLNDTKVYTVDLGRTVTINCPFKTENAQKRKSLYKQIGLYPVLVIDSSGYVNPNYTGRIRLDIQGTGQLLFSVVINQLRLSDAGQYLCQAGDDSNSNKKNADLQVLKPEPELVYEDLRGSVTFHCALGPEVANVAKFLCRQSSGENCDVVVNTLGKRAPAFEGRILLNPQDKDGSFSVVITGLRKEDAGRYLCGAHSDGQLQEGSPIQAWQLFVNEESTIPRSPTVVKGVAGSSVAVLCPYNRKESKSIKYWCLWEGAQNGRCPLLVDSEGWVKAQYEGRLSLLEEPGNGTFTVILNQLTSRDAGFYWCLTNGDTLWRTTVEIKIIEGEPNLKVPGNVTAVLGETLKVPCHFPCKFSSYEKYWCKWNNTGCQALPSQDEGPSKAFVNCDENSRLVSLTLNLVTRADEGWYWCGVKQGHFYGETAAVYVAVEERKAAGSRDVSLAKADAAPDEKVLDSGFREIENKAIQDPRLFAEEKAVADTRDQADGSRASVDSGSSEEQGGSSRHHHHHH

Kd [nM]	Binder
0.275	B22
1.97	B23
10.9	B24
0.15	B25
